Experimental data reported in patent publication US20040019926A1 (CROPDESIGN N V, published 2004).

B1: empty prey pADGal4 vector (Gal4 activation domain alone) (other, UniProt P04386 761-881, looked up)
chain: PSALFGGANFNQSGNIADSSLSFTFTNSSNGPNLITTQTNSQALSQPIASSNVHDNFMNNEITASKIDDGNNSKPLSPGWTDQTAYNAFGITTGMFNTTTMDDVYNYLFDDEDTPPNPKKE
notes: Negative control in the yeast two-hybrid assay
B2: empty pBDGal4 vector (Gal4 binding domain alone) (other, UniProt P04386 1-148, looked up)
chain: MKLLSSIEQACDICRLKKLKCSKEKPKCAKCLKNNWECRYSPKTKRSPLTRAHLTEVESRLERLEQLFLLIFPREDLDMILKMDSLQDIKALLTGLFVQDNVNKDAVTDRLASVETDMPLTLRQHRISATSSSEESSNKGQRQLTVSI
notes: as for B1

Legend:
[1] = target: T1, rice cyclin-dependent kinase Cdc2-Os1 (rice, UniProt P29618 1-294); experiment: yeast two-hybrid, Cdc2-Os1 in bait pBDGal4 with empty prey pADGal4
T1 construct: The Gal4 parts are not written into the chain
T1 sequence (P29618 whole entry, the tested form may be a part): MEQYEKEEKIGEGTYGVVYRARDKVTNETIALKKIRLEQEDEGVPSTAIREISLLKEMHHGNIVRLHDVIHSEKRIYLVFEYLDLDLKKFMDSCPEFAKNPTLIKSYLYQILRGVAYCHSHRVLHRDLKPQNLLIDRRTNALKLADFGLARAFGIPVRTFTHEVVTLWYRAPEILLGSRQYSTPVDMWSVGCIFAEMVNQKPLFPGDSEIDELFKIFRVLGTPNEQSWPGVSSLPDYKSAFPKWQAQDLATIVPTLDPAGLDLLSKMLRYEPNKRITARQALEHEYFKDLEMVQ
Source text: (§1) The interactions of OsICK2 and OsICK4 with Cdc2-Os1 and CycD3-Os (the rice cyclin D3) were verified using a yeast two hybrid approach. In a preliminary step, yeast strain PJ69-4A (MATa trp1-901 leu2-3,112 ura3-52 his3-200 gal4(deleted) gal80(deleted) LYS2::GAL1-HIS3 GAL2-ADE2 met2::GAL7-lacZ) was transformed with Cdc2-Os1 in bait vector pBDGal4 (Stratagene), using the lithium acetate method, well known to those skilled in the art. The rice Cdc2-Os1 was previously obtained by PCR as described in Example 1. The Cdc2-Os1 was also cloned in the pADGal4 prey vector. The junctions between the pBDGal4 binding domain and the pADGal4 activation domain and the Cdc2-Os1 fragment were sequenced to verify correct in-frame fusion.
(§2) Two putative positive clones were identified. A second round of screening on these clones was performed. Pure positive plaques were isolated and phagemids were excised therefrom. Sequencing of the two clones reveiled that the clones were identical with a full length size of 1.7 kb. The clones contain an ORF of 1140 bp encoding a protein of 380 amino acids. This protein is designated cyclin D3 from rice (CycD3-Os). […]
(§3) As positive controls, growth was assessed in yeast containing the prey vector pADGal4 with Cdc2-Os1 and retransformed with the bait vector pBDGal4 containing OsICK2 or CycD3-Os. […]

[2] = target: T2, full-length rice OsICK2 protein (Oryza sativa, UniProt A2X9W8 1-262); experiment: yeast two-hybrid, OsICK2 in bait pBDGal4 with empty prey pADGal4
T2 construct: The Gal4 parts are not written into the chain; Form 'mature' here means the full-length protein; also called Os2
T2 sequence: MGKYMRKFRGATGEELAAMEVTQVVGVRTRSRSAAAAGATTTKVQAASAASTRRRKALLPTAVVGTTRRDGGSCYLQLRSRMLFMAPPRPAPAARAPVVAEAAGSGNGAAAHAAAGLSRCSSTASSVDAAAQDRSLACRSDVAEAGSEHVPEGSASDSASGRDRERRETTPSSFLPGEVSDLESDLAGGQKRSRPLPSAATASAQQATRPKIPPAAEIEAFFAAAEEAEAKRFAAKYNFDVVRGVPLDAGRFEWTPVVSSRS
Source text: as §1, §2, §3

[3] = target: T2, full-length rice OsICK2 protein; experiment: yeast two-hybrid, OsICK2 in prey pADGal4 with empty pBDGal4
Source text: as §1, §2, §3

[4] = target: T1, rice cyclin-dependent kinase Cdc2-Os1; experiment: yeast two-hybrid, Cdc2-Os1 in prey pADGal4 with empty pBDGal4
Source text: as §1, §2, §3

Binder | binding result [1] | binding result [2] | binding result [3] | binding result [4]
B1 | no binding | no binding | – | –
B2 | – | – | no binding | no binding
